Results on 20 sequences are retold here after the DeepSol protein solubility set.

The data set is described as follows: soluble on expression in E. coli; label from the status in PepcDB or PDB records.
Turning to “MGSDKIHHHHHHVYYAHFGLKEPPFKITPNTDFFFRGGNRGAVLEALRYAILHGEGIVKVVGEVGSGKTMLCRMLQTQLPDHVDSVYLANPSMAPEDVLHAIALELHLDIPDRLSKLEVMQRLQQALLDKHEARRQVVVFVEEAQGMPLATLEEIRLLTNLETRHHKLLQIVLFGQPELDDNLNQRQIRQLKERITHSFYLGPLSRDEIAEYLMFRLRAAGYYGPPLFTKRAVKQLAKMAQGLVRRVNILADKSLLAAFAANADQVTPRHVAAAIRDSEFAGEIQRPVGRWSVLIGGLVLGVAGMALYAWSQGMLPLPVAPAPVTHAETEQRLEEAHSLENESGRGMSGVLPLLMQREEASLVWLDSTPPEYITIALMHDFPETDQEKEQQLLSANLVLDDVYALRTKVGEEDRVIILYGAYENRQQALEEFRSLPKALQMGAYLRTIAGIREELLQHQ”, the “soluble on expression in E. coli” value is on record as “not soluble”.

As to “MTPSKTTLVERCYKYIMSNEKNWSPYTVINRKSWVKNYIEPFFKDTKLIDINPVLIQTFINTTFNNCTFSSSKIRYRFISSVLKEAYRLREINENPCDFVKLPLEHHHHHH”, the “soluble on expression in E. coli” value is “not soluble”.

“TRAFQEGSYSSNIKNAAKFYTGLIQLQNPEFGDSSSIDDALPQTDTFISASRANSNIDVILPRVESFALAAKGERSKGVMVLGVDPESENAYSHISDKLVQGEFIASGQNAVLVGGGLAQYLRLKIGDELVLYGAGYRGQTAAGLYRVAGILHFPLQQLDSQLVYMPLDTAQTLYSLDKQVTAWVLNTSNLRVLPSVIEQLKRDYGNSVAVKGWQELSPELSQQIALDKAG”: the “soluble on expression in E. coli” value is “not soluble”.

Regarding “QVEFYFSEFNFPYDRFLRTTAEKNDGWVPISTIATFNRMKKYRPVDKVIEALRSSEILEVSADGENVKRRVPLDLTAARNARIEQNQRTLAVMNFPHEDVEASQIPELQENLEAFFKKLGEINQVRLRRDHRNKKFNGTVLVEFKTIPECEAFLKSYSNDDESNEILSYEGKKLSVLT”, the “soluble on expression in E. coli” value was “not soluble”.

As for “MKAPFFNAPIFRQLIEFKSSTYTYIIGCHKTGKAVIIDPVVDTVSRDIQIIRDLNLDLIYGLNTHVHADHITGTNSLKTVFPTMKSVLSSKSGGEADKYVSDGEIIEIGGLKLEVRETPGHTNGCLTYVEHSLRSAFTGDALLIRACGRTDFQQGNPASLFDSVHDKIFTLPEDYVVYVGHNYNGVLQTTVWEEKNLNPRLTKSKDQFVEIMKNLKLNYPKQIDKAVPANMVDGKGH”, the “soluble on expression in E. coli” value is given as “not soluble”.

With “MGSDKIHHHHHHMGKPVSSPYYIGCSGWHYAHWVGAFYPPGLPSTGRLAFYAGRFHTVEINSSFYRLPSEKCLRAWHDGTPAGFLFALKASRFITHMKKLKDSEASLARLLGRAENLGEKLGPVLFQLPPHWRRNAKRLEGFLRVLPSGHRYAFEIRDPSWHHPEIYALLNAYNAAFCIFDIAGFQSPIQLTTDFAYIRLHGPSFAAYAGRYTTEALRAWAARIRTWGLRTVYVYFDNDQAAYATHNALELMGILGL”, the “soluble on expression in E. coli” value was “not soluble”.

On to “MPISRYYDVKRDEKGERYLEPYVTGFLLLRLPLLNKGTAFTEEERRLLGLEGLLPPHVHTLEEQKERVYRRYRLIQSPLEKHIYLRHLQDRNEVLFYALVVDHLEEMLPILYTPTVGEAVREFSHIYRYPRGFTASTKNIDRIDEALQNVPLEDVRLIVATDSSAILGIGDQGYGGMAISIGKLTLYTAAGGVGPDKTLPVELDVGTDREDLLKDPLYLGVRHRRLRGEEYFRFLDRFVEAVRRRYPKALIQWEDFAKETAFQVLERYRKVIPSFNDDIQGTGAVALAGVLSACRLKGERLSDQVVVVYGAGAGGIGVAWALVEGMKREGLSEEEAKARVLVLDSKGLLVEGRSMEDYKRPYAQRPERLWGWRFAGEYPNLLETITNARATVLLGLSGQAGSFTEPVVRAMLANTPRPVIFPLSNPTSATEALPDDLVYWTEGRALVAAGSPFPPVGFKGRTVPIGQGNNAFVFPGLGLGAVLSRAREVTDGMVLEAAYALYDYTREHFPERIYPPVGRLREVSPYVAARVMQRALEEGVAEEARVQGLTLEALLDFVKSRFWEPRYLPYRPAPVI”, for which the “soluble on expression in E. coli” value is recorded as “soluble”.

As for “SVLVLDDRIVDAATKDLYVNGFQEEIQYQNPTPENLQHMFHQGIEILDSARMINVTHLALWKPSSFKLGNPVDFALDDNYDTFWQSDGGQPHQLDIMFSKRMDICVMAIFFSMIADESYAPSLVKVYAGHSPSDARFYKMLEVRNVNGWVALRFLDNREDDQLLKCQFIRLLFPVNHENGKDTHLRGIRLYVPSNEPHQDTHEWAQTLPETNNVFQDAILR”, the “soluble on expression in E. coli” value is given as “soluble”.

Take “MSLDNVIDEVVWVIGDEAILKSDVEEARLAALYEGRKFDGDPYCVIPEELAVQKLYMHQAVLDSIEVPEAEVIQRVDYQISNYIQALGSRERMEAEFNKTSTQIREAMRENARDGLIVQRMQQKLVGDIKVTPAEVRRYFKELPQDSIPYVPTQVEVQIITQQPKIPVAEIEDVKRRLREYTDRINKGESDFSTLALLYSEDRGSAIKGGETGFMGKGQMVPEYANVAFNLQDTKKISKIVESEYGFHIIQLIEKRGDRINTRHILLKPKVSDKELDEANARLDSIANDIRSDKFTFDQAASALSQDKDTRNNHGLMQNPQNQTAKFEMQDLPQEIAKVVDKMNIGEISKAFTMVNPKDGKEVCAIVKLKSRINGHKATITDDYQNLKEIVLDKRREEALQKWIVEKQKHTYVRINPAWQRCDFKYPGWIKKEGHHHHHH”: the “soluble on expression in E. coli” value is listed as “soluble”.

For the sequence “MKYDILIAGVGGQGVVLASRILALSAMKAGFRVSTAETIGMSQREGSVSSHVRIGDEISGSLIPEGKADLLIGLEPAETIRNLPFLKEGGKIIVNSHAIPPASKPPGSPEYNPGALLSYLKTGFPDFFCLDFTRLAEEAGTYRAANVAMIGAAAGMGILPFSKEIVLALMEAEIPEKHRAVNRAAFEEAVKKIK”, the “soluble on expression in E. coli” value is given as “not soluble”.

With “GMLELVGEYWEQLKITVVPVVAAAEDDDNEQHEEKAAEGEEKEEENGDEDEDEDEDEDDDDDDDEDEEEEEEVTDQLEDLREHFKNTEEGKALVHHYEECAERVKIQQQQPGYADLEHKEDCVEEFFHLQHYLDTATAPRLFDKLK”, the “soluble on expression in E. coli” value is on record as “soluble”.

Take “MSLEKEAFMEKLLSFMKEEAYKPLTVQELEEMLNITEAEEFKELVKALVALEEKGLIVRTRSDRYGIPEKMNLIKGKISAHAKGFAFLLPEDTSLSDVFIPPNELNTAMNGDIVMVRLNSQSSGSRQEGTVIRILERAIQRVVGTYTETRNFGFVIPDDKKITSDIFIPKNGKNGAAEGHKVVVKLTSYPEGRMNAEGEVETILGHKNDPGIDILSVIHKHGLPGEFPADAMEQASSTPDTIDEKDLKDRRDLRDQVIVTIDGADAKDLDDAVTVTKLDDGSYKLGVHIADVSHYVTENSPIDKEALERGTSVYLVDRVIPMIPHRLSNGICSLNPKVDRLTLSCEMTINSQGQVTEHEIFQSVIKTTERMTYSDVNKILVDDDEELKQKYEPLVPMFKDMERLAQILRDKRMDRGAVDFDFKEAKVLVDDEGAVKDVVIRERSVAEKLIEEFMLVANETVAEHFHWMNVPFIYRIHEEPNAEKLQKFLEFVTTFGYVVKGTAGNIHPRALQSILDAVRDRPEETVISTVMLRSMKQAKYDPQSLGHFGLSTEFYTHFTSPIRRYPDLIVHRLIRTYLINGKVDEATQEKWAERLPDIAEHTSSMERRAVDAERETDDLKKAEYMLDKIGEEFDGMISSVTNFGMFVELPNTIEGLVHVSFMTDDYYRFDEQHFAMIGERTGNVFRIGDEITVKVVDVNKDERNIDFEIVGMKGTPRRPRELDSSRSRKRGKPARKRVQSTNTPVSPAPSEEKGEWFTKPKKKKKKRGFQNAPKQKRKKKKEGHHHHHH”: the “soluble on expression in E. coli” value is “soluble”.

For the sequence “MGHHHHHHSHMAAPPQLRALLVVVNALLRKRRYHAALAVLKGFRNGAVYGAKIRAPHALVMTFLFRNGSLQEKLWAILQATYIHSWNLARFVFTYKGLRALQSYIQGKTYPAHAFLAAFLGGILVFGENNNINSQINMYLLSRVLFALSRLAVEKGYIPEPRWDPFPLLTAVVWGLVLWLFEYHRSTLQPSLQSSMTYLYEDSNVWHDISDFLIYNKSRPSN”, the “soluble on expression in E. coli” value is on record as “not soluble”.

Turning to “GPELYHYQECVRGTTVLLKEPCPSGTYEGNSPFHPLADNKFALTCTSTHFAFACADGTRHTYQLRARSVSPKLFIRQEEVQQELYSR”, the “soluble on expression in E. coli” value is recorded as “soluble”.

For “MSLNARARALRHSRSGTIGLIVPDVNNAVFADMFSGVQMAASGHSTDVLLGQIDAPPRGTQQLSRLVSEGRVDGVLLQRREDFDDDMLAAVLEGVPAVTINSRVPGRVGSVILDDQKGGGIATEHLITLGHSRIAFISGTAIHDTAQRRKEGYLETLASAGLRSEAAWVVDAGWEADAGSAALNTLYRGANLGKPDGPTAVVVASVNAAVGALSTALRLGLRVPEDLSIVGINTTWVSDTVYPALTTVRLPLQRLGEVAADVLMEHLGGRALTDTVVTQPTPELLVRETTAPPTREGHHHHHH”, the “soluble on expression in E. coli” value is recorded as “soluble”.

With “MSLKLIGMLDSPYVRRVAISLKSLGLPFEHHSLSVFSTFEQFKAINPVVKAPTLVCEGGEVLMDSSLIIDYLETLAGPQRSLMPTALPQRLRELRLVGLALAACEKSVQIVYERNLRPAEKQHGPWLERVGGQLQAAYGELEQELQKQPLPRDGSLGQAGISLAVAWSFSQMMVADQFNPGQFPAVRGFAEYAEQLPVFLATPATEGHHHHHH”, the “soluble on expression in E. coli” value is reported as “soluble”.

In the case of “MNKKNICALAVLSGLSFSAMALDCDPNLLPSWQDGASKTAIVNYVDQSTDASKKTFIPEQDRIAVFDNDGTLWSEKPYYFQLAFALDQVKNMAKEHPEWKTQEPFKSVLNNDIKNVFAGGEKALLDIVTATHSGMTVEEYQQTVAQWLEVAKDPHFNKAYTELTYKPMREMVTYLQDHDFKVYIVSGGGVDFMRTWAPEVYGIPEEQIIGSALKYKYDYNNSNPTVTKLGEILTIDDKAGKVENIQHIIGKKPVLAIGNSDGDHAMMQWATSQPNSMAMIVHHTDEAREWKYDRKSSVGHLDKAMDEANQRDNWYLIDMKNEWCTVY”, the “soluble on expression in E. coli” value was “soluble”.

For “MKRIFVQNRELVVPGTLLAQGPYKNGRGTFREGSRIYSTVIGLVDIKGNTIRVIPLEGPYIPEVGDNVIGKIVDVKFSSWVVDIGAPYLANLKIQDFTDEKIDLLRTDLRKFFDIGDIIYGKVKAITEVNNIDLTTKGMPFNGGPLKGGQIVKITPSRVPRVIGRGGSMINMIKKLTMTRIIVGQNGWIWVNGKNEALEKLAIEAILKIDRESHTKGLTDRIKSLLLSRLQELKEKGVIEEIPELEEEPQEETEVNNNDGETRRT”, the “soluble on expression in E. coli” value is listed as “soluble”.

Take “MFNCLGTSNRDFVEGASGATWIDLVLEGGSCVTVMAPEKPTLDFKVMKMEATELATVRKYCYEATLDTLSTVARCPTTGEAHNTKRSDPTFVCKRDVVDRGWGNGCGLFGKGSIDTCAKFTCKNKATGKTILRENIKYEVAIFVHGSTDSTSHGNYFEQIGKNQAARFTISPQAPSFTANMGEYGTVTIDCEARSGINTEDYYVFTVKEKSWLVNRDWFHDLNLPWTSPATTDWRNRETLVEFEEPHATKQTVVALGSQEGALHTALAGAIPATVSSSTLTLQSGHLKCRAKLDKVKIKGTTYGMCDSAFTFSKNPTDTGHGTVIVELQYTGSNGPCRVPISVTANLMDLTPVGRLVTVNPFISTGGANNKVMIEVEPPFGDSYIVVGRGTTQINYHWHKEGSSIGKA”: the “soluble on expression in E. coli” value is reported as “not soluble”.

As to “MGSDKIHHHHHHMRKLPPLRALQIFEAAARHAHFSRAATELCITQSAVSHQVRLLEAHFGERLFIREGRQLCLTSKGNVLYHELERIFNELNDLSMQITGDCNDQLRLAVYSSFAIKWLIPRLSDFHRLHPQIKIRLDMITDDPQMSDSVADMFITGQSGQPGYVHRMLHQERLIPVICPGLLNTDHSALSVLRQHALLTVDEGPIGFDWERWLKVNSISIAATQQQHVFSHVLLAIEAAIAGQGIALASDFMVERDISKGALVALDLPAMLTGFEFNFSCKQRRLKEPAIAAFVQWLTKK”, the “soluble on expression in E. coli” value was “not soluble”.
